Measured values taken from article PMC10694151, “Regulation of the cell division hydrolase RipC by the FtsEX system in Mycobacterium tuberculosis” (Nature Communications, 2023).

B1: FtsE (Rv3102c) of Mycobacterium tuberculosis (natural protein)
chain: MMITLDHVTKQYKSSARPALDDINVKIDKGEFVFLIGPSGSGKSTFMRLLLAAETPTSGDVRVSKFHVNKLRGRHVPKLRQVIGCVFQDFRLLQQKTVYDNVAFALEVIGKRTDAINRVVPEVLETVGLSGKANRLPDELSGGEQQRVAIARAFVNRPLVLLADEPTGNLDPETSRDIMDLLERINRTGTTVLMATHDHHIVDSMRQRVVELSLGRLVRDEQRGVYGMDR
notes: also called MtbFtsE; NBD
B2: FtsX (Rv3101c) of Mycobacterium tuberculosis (natural protein)
chain: MRFGFLLNEVLTGFRRNVTMTIAMILTTAISVGLFGGGMLVVRLADSSRAIYLDRVESQVFLTEDVSANDSSCDTTACKALREKIETRSDVKAVRFLNRQQAYDDAIRKFPQFKDVAGKDSFPASFIVKLENPEQHKDFDTAMKGQPGVLDVLNQKELIDRLFAVLDGLSNAAFAVALVQAIGAILLIANMVQVAAYTRRTEIGIMRLVGASRWYTQLPFLVEAMLAATMGVGIAVAGLMVVRALFLENALNQFYQANLIAKVDYADILFITPWLLLLGVAMSGLTAYLTLRLYVRR
notes: also called MtbFtsX

Legend:
MtbFtsEX/RipC = molecular target: T1, MtbFtsEX/RipC (Mycobacterium tuberculosis, UniProt O05779)
T1 construct: gene ftsE

[1] = molecular target: B2; assay: cryo-EM structure; FtsEX or FtsEX-RipC in peptidiscs, 3 mg/ml, ATP-free; conditions: both partners purified
[2] = molecular target: the molecule itself; assay: as above

T1 sequence (P9WHU3 34-385, one chain of several, further chain): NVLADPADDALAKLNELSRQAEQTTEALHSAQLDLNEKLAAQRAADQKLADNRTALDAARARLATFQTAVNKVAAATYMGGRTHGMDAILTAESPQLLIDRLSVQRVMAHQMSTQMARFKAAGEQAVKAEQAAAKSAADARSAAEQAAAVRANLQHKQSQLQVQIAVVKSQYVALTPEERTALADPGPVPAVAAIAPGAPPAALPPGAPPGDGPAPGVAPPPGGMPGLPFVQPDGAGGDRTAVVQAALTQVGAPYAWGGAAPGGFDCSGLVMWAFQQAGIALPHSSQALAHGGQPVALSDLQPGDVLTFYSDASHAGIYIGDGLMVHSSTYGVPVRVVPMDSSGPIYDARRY

Nc1ncnc2c1ncn2[C@@H]1O[C@H](COP(=O)(O)OP(=O)(O)O)[C@@H](O)[C@H]1O [ADP]
cryo-EM structure, 5.7 Å, polyalanine model (MtbFtsEX/RipC): with EM density compatible with an ADP molecule

B1
binding result [1]: binds

B2
stoichiometry N [2]: 2
